Measured values as given in publication PMC5826585.

Biological target: IGF2BP2-dRRM (Homo sapiens, UniProt Q9Y6M1 158-599)
Assay: pull-down

IGF2BP2-dRRM, sequence (Q9Y6M1 158-599): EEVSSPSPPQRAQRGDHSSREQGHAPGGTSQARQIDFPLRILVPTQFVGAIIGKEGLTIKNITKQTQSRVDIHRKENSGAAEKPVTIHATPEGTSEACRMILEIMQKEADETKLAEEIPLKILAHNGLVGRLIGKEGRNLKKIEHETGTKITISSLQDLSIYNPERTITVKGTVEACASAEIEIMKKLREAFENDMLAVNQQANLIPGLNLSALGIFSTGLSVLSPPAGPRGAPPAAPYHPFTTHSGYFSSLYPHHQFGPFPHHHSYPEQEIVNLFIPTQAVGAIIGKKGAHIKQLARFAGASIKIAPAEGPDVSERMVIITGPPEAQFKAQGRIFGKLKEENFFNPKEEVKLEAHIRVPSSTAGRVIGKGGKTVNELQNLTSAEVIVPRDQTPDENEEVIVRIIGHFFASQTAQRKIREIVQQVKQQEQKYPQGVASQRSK

B1: ss-m6A (biotin) (ssRNA)
RNA: CGUCUCGGACUCGGACUGCU
modifications: m6A at positions 9 and 15
**Q.** Does B1 bind?
**A.** binds
